For this test, the target named is T1, human CD39 endogenously expressed on Ramos human lymphoma cells (human, UniProt P49961 1-510).
T1 construct: also called NTPDase1; ENTPD1
T1 sequence: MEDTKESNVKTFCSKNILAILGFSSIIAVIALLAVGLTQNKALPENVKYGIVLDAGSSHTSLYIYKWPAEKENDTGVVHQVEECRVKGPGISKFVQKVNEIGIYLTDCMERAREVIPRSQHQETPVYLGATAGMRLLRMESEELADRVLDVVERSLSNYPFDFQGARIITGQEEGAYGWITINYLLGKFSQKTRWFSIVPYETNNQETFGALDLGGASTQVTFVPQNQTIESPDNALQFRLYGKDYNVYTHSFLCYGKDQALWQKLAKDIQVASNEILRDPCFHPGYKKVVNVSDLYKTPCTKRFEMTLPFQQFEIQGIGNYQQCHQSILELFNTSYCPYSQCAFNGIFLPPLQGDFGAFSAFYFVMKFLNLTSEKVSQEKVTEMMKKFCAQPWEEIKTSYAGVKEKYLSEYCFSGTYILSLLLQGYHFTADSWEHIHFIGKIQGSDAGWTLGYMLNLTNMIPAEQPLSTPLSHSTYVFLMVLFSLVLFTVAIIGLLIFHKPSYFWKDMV
Briefly: flow cytometry, antibody titration on Ramos cells endogenously expressing CD39.

Residue numbers refer to the chain shown, from its start. Names may count otherwise.

B1: HH3/L0 (antibody, human IgG1, V domains shown)
VH: QVQLVQSGSELKKPGASVKVSCKASGYTFTHYGMNWVRQAPGQGLKWMGWINTYTGEPTYAQDFKGRFVFSLDTSVSTAYLQISSLKAEDTAVYYCARRRYEGNSVFYYFDYWGQGTTVTVSS
VL: DIQMTQSPSSLSASVGDRVTITCRASENIYSYFSWYQQKPGKAPKLLIYTAKTLAEGVPSRFSGSGSGTDFTLTISSLQPEDFATYYCQHHYVTPYTFGGGTKVEIK
notes: Human IgG1 N297Q, huCk; also called mAb38
As for B1, the binding result was “binds”.

B2: HH4/L0 (antibody, human IgG1, V domains shown)
VH: B1 VH with Y54E, Q62D, S105Y
VL: B1 VL
notes: Human IgG1 N297Q, huCk; HH4 has a glutamic acid substitution at Kabat residue 53; its row is lacking in this copy; If the inference holds, this is mAb39
Consider B2, for which the binding result is listed as “no binding”.
